In assay [1] the target is human α-CGRP F27A (25-37) (human). Nature of the assay: Biacore SPR 25 C, Fab over peptide on SA chip; ratio to parent 25-37. For orientation: SPR reads the build-up and loss of mass on a sensor chip optically.
Assay [2] deals with human α-CGRP V28A (25-37) (human). The assay is described as above.
The target in assay [3] is human α-CGRP 1-37 (WT) (human). In words: Biacore, 25 C, Fab over biotin-CGRP on SA chip.
Assay [4] deals with human α-CGRP 1-37 (WT) (human). In words: Biacore, 37 C, Fab over biotin-CGRP on SA chip.
The target in assay [5] is rat α-CGRP (1-37) (rat). In words: Biacore, 37 C, Fab over biotin-CGRP on SA chip.
rat α-CGRP (1-37) (rat), sequence (peptide, as listed by the source): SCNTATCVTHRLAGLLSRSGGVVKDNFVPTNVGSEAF
For assay [6], the target named is human α-CGRP fragment 25-37 (human). In words: Biacore, 25 C, Fab over biotin-fragment on SA chip.
Assay [7] has as its target human α-CGRP 1-37 (WT) (human). Nature of the assay: Biacore SPR 25 C, Fab over N-biotinylated peptide on SA chip.
Assay [8] concerns the target human α-CGRP K35A (19-37) (human). Nature of the assay: Biacore SPR 25 C, Fab over peptide on SA chip; ratio to parent 19-37.
Assay [9] concerns the target human α-CGRP G33A (25-37) (human). Nature of the assay: Biacore SPR 25 C, Fab over peptide on SA chip; ratio to parent 25-37.
Assay [10] has as its target human α-CGRP N31A (25-37) (human). The description is as above.
The target in assay [11] is human α-CGRP P29A (25-37) (human). The assay is described as above.
In assay [12] the target is human α-CGRP S34A (25-37) (human). The description is as above.
Assay [13] deals with human α-CGRP T30A (25-37) (human). The assay is described as above.
The target in assay [14] is human α-CGRP V32A (25-37) (human). The description is as above.
Assay [15] concerns the target human α-CGRP fragment 19-37 (human). Nature of the assay: Biacore SPR 25 C, Fab over N-biotinylated peptide on SA chip; mean ± SD of two measurements on different chips.
The target in assay [16] is human α-CGRP fragment 25-37 (human). The assay is described as above.

From patent US20170037117A1, “COMPOSITIONS AND METHODS FOR TREATING METABOLIC DISORDERS” (Salk Institute for Biological Studies, priority 2014, published 2017) come the findings set out here.

human α-CGRP 1-37 (WT) (human), sequence (peptide, as listed by the source): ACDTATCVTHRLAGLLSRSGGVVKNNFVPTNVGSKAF

On to “murine anti-CGRP monoclonal antibody 7E9, Fab fragment”, for which the KD (mutant/parent) in assay [1] and in [2] was 1 throughout.
“anti-CGRP monoclonal antibody 4901, Fab fragment”: the dissociation constant (Kd) – broadly, the free concentration of one partner at which half of the binding sites on the other are occupied at equilibrium, for simple one-to-one binding – in assay [3] is 61 nM; in assay [4], 139 nM; in assay [5], 3.4 nM; in [7], 60.5 nM; in assay [15] it was 52 nM; in assay [16], 296 nM. In assay [6], this substance gave a fold lower affinity than to full length human α-CGRP of 6 fold. Further, the KD (mutant/parent) in assay [8] was 0.3; in assay [1], 0.8; in assay [9] it was 1.3; in assay [10], 0.3; in assay [11], 0.2; in [12] it was 0.8. Further, the results for the KD (mutant/parent) in assay [13], in [2] and in [14] were 0.2, 0.8 and 0.9, respectively.
